{"source": "paper PMC8233511", "assay_in_all_cases": "EMSA", "key": {"[1]": {"molecular_target": "Oct4 POU domain (UniProt P20263 131-282)", "sequence (P20263 131-282)": "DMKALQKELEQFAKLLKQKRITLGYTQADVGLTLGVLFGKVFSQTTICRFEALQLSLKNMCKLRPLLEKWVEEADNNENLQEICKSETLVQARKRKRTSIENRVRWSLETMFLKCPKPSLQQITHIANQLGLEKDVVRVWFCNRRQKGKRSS"}, "[2]": {"molecular_target": "T1, Oct4 POU domain homodimer (UniProt P20263 131-282)", "T1 sequence (P20263 131-282)": "as above"}, "[3]": {"molecular_target": "T1, Oct4 POU domain homodimer", "remark": "listed apart in the source"}, "[4]": {"molecular_target": "Oct4 POU domain;Sox2 HMG domain (mouse?;mouse?, UniProt P20263;P48432 131-282;43-111, |)", "sequence (P20263 131-282, chain 1 of 2)": "as the sequence (P20263 131-282) above", "sequence (P48432 43-111, chain 2 of 2)": "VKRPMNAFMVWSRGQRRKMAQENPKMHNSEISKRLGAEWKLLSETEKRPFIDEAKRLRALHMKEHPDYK"}, "[5]": {"molecular_target": "Oct4 POU domain;Sox17 HMG domain (mouse?;mouse?, UniProt P20263;Q61473 131-282;68-136, |)", "sequence (P20263 131-282, chain 1 of 2)": "as the sequence (P20263 131-282) above", "sequence (Q61473 68-136, chain 2 of 2)": "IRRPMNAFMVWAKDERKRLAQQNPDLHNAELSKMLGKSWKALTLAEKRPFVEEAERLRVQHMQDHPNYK"}}, "note": "Where two headings read alike, the source gives them in different places.", "data": [{"binder": "Octamer (dsDNA) DNA 1: GGCGGCGGATGCAAATCGGCGGCGG DNA 2: CCGCCGCCGATTTGCATCCGCCGCC", "values": [{"measurement": "binding result", "setting": "[1]", "result": "binds"}]}, {"binder": "MOREC4 (dsDNA) DNA 1: GGCCTCATGCATATGCATGCGGCGG DNA 2: CCGCCGCATGCATATGCATGAGGCC", "values": [{"measurement": "binding result", "setting": "[2]", "result": "binds"}]}, {"binder": "MOREA4 (dsDNA) DNA 1: GCCGCCATGAATATTCATGCCGCCGC DNA 2: GCGGCGGCATGAATATTCATGGCGGC", "values": [{"measurement": "binding result", "setting": "[2]", "result": "binds"}]}, {"binder": "MOREA4+1 (dsDNA) DNA 1: GCCGCCATGAATAATTCATGCCGCCG DNA 2: CGGCGGCATGAATTATTCATGGCGGC", "values": [{"measurement": "binding result", "setting": "[2]", "result": "binds"}]}, {"binder": "PORE (dsDNA) DNA 1: GGATCCATTTGCCTTTCAAATGTGG DNA 2: CCACATTTGAAAGGCAAATGGATCC", "values": [{"measurement": "binding result", "setting": "[3]", "result": "binds"}]}, {"binder": "SoxOct canonical (dsDNA) DNA 1: GCGGCATTGTCATGCAAATCGGCGG DNA 2: CCGCCGATTTGCATGACAATGCCGC", "values": [{"measurement": "binding result", "setting": "[4]", "result": "binds"}]}, {"binder": "SoxOct compressed (dsDNA) DNA 1: GGCGGCATTGTATGCAAATCGGCGG DNA 2: CCGCCGATTTGCATACAATGCCGCC", "values": [{"measurement": "binding result", "setting": "[5]", "result": "binds"}]}]}
